Assay results reported in patent US20070128623A1.

Target: GST-tagged PLD1-PX
Experiment: AFM force measurement; GST-Munc-18-1 on dendron-modified tip, GST-PLD1-PX on dendron-modified Si wafer

GST-tagged Munc-18-1
binding force: 50 pN
